Assay results: paper PMC6588440 (Free radical biology & medicine, 2019)

B1: Peroxiredoxin 2 (Prx2) (natural protein, UniProt P32119 1-198, looked up)
chain: MASGNARIGKPAPDFKATAVVDGAFKEVKLSDYKGKYVVLFFYPLDFTFVCPTEIIAFSNRAEDFRKLGCEVLGVSVDSQFTHLAWINTPRKEGGLGPLNIPLLADVTRRLSEDYGVLKTDEGIAYRGLFIIDGKGVLRQITVNDLPVGRSVDEALRLVQAFQYTDEHGEVCPAGWKPGSDTIKPNVDDSKEYFSKHN
modifications: inter-subunit disulfide (oxidized dimer); reduced thiols alkylated with NEM before lysis
B2: Peroxiredoxin 3 (Prx3) (natural protein, UniProt P30048 62-256, looked up)
chain: APAVTQHAPYFKGTAVVNGEFKDLSLDDFKGKYLVLFFYPLDFTFVCPTEIVAFSDKANEFHDVNCEVVAVSVDSHFSHLAWINTPRKNGGLGHMNIALLSDLTKQISRDYGVLLEGSGLALRGLFIIDPNGVIKHLSVNDLPVGRSVEETLRLVKAFQYVETHGEVCPANWTPDSPTIKPSPAASKEYFQKVNQ
modifications: inter-subunit disulfide (oxidized dimer); reduced thiols alkylated with NEM before lysis
B3: Peroxiredoxin 1 (Prx1) (natural protein, UniProt Q06830 1-199, looked up)
chain: MSSGNAKIGHPAPNFKATAVMPDGQFKDISLSDYKGKYVVFFFYPLDFTFVCPTEIIAFSDRAEEFKKLNCQVIGASVDSHFCHLAWVNTPKKQGGLGPMNIPLVSDPKRTIAQDYGVLKADEGISFRGLFIIDDKGILRQITVNDLPVGRSVDETLRLVQAFQFTDKHGEVCPAGWKPGSDTIKPDVQKSKEYFSKQK
modifications: inter-subunit disulfide (oxidized dimer); reduced thiols alkylated with NEM before lysis

Molecular target: the molecule itself
Assay: non-reducing SDS-PAGE immunoblot

**Q.** B1 was tested. Which “stoichiometry N” value did it give?
**A.** 2

**Q.** B2 was tested. Which “stoichiometry N” value did it give?
**A.** 2

**Q.** For B3, which “stoichiometry N” value is on record?
**A.** 2
